Assay results: patent publication US20120245104A1, “NOVEL RETRO-INVERSO LEPTIN PEPTIDE ANTAGONISTS” (priority 2011, published 2012)
Where no end group is shown, it is not given here.

The binders below were run against T1, leptin receptor (ObR) (UniProt P48357 22-1165, limits assumed) (assay: cell-based or functional assay).
T1 sequence (looked up): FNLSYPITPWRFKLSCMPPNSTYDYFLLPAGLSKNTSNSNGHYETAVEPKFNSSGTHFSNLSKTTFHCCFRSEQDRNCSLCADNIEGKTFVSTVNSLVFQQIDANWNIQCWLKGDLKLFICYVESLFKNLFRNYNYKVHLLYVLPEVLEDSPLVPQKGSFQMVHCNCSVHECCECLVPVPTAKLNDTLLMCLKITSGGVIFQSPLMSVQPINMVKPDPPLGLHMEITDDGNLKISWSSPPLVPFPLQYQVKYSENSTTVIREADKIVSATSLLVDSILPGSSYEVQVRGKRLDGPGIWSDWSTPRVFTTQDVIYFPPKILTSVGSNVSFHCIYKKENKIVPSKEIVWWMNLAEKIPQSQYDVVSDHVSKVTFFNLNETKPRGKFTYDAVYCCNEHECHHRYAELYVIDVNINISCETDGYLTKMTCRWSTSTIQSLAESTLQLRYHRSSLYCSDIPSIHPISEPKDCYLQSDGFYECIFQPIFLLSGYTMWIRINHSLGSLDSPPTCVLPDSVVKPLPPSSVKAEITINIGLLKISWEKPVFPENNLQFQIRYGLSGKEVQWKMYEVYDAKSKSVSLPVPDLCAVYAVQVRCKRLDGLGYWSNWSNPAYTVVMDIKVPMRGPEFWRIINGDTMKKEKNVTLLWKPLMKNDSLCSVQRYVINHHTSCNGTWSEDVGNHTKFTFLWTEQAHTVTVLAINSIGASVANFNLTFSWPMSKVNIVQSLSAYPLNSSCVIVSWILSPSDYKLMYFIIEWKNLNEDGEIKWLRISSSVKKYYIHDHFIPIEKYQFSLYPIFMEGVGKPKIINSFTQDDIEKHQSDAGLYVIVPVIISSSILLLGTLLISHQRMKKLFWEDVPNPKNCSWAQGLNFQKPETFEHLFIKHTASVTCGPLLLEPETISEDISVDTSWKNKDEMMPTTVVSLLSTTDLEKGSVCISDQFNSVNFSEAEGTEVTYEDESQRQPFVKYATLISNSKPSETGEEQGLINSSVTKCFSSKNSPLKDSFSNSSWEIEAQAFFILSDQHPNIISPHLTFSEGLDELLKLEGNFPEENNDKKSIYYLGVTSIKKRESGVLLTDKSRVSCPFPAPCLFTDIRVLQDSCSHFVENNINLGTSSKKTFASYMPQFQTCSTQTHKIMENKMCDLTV

Q: With VQDDTKTLIKTIVTRINDI-NH2 [Truncated LPA-1 (6-24), T10 (original amino acid)] as the binder, how does the “IC50 (half maximal inhibitory concentration), inhibition of leptin-induced cell growth” value (shortened to “IC50 … inhibition of leptin-induced cell growth”) read?
A: 25.7 nM

Q: How did the “IC50 … inhibition of leptin-induced cell growth” value turn out when SRNVIQISNDLENLRDLLHVLAFSKS-NH2 [Full-length LPA-2 (70-95)] was run?
A: 33 nM

Q: Which “IC50 … inhibition of leptin-induced cell growth” value does the source give for NVIQISNDLENLRDLLHV-NH2 [Truncated LPA-2 (72-89), D79 (original amino acid)] here?
A: 32 nM

Molecular target: T1, leptin receptor (ObR)
Test: cell-based or functional assay
Remark: another data set of the same source

Q: How did the “IC50, inhibition of leptin-induced growth of MCF-7 cells” value (shortened to “IC50, inhibition”) turn out when VQDDTKTLIKTIVTRINDI-NH2 [Truncated LPA-1 (6-24), T10 (original amino acid)] was run?
A: 25.7 nM

Q: How did the “IC50, inhibition” value turn out when SRNVIQISNDLENLRDLLHVLAFSKS-NH2 [Full-length LPA-2 (70-95)] was run?
A: 33 nM

Q: With NVIQISNDLENLRDLLHV-NH2 [Truncated LPA-2 (72-89), D79 (original amino acid)] as the binder, how does the “IC50, inhibition” value read?
A: 32 nM
